± gives the uncertainty stated by the source.

The nature of the series: amyloid nucleation score (Sup35N fusion, yeast selection) (log enrichment); library NNK3; higher = more nucleation; inactive = no reads after selection. In outline:
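Plasmid inserts were Illumina-sequenced at input and output from psi-negative yeast expressing Sup35N fused to peptides of 20 random codons. The yeast were induced with 100 μM copper sulfate for 24 hours and grown 7 days at 30°C on medium lacking adenine and uracil, and sequences with under 100 input reads were excluded. Nucleation score is the DiMSum log enrichment of output over input reads, centred on the mode score of non-aggregating sequences.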
On to SIDNLSPRPTWSGIMFSHCL, for which the amyloid nucleation score entry is “inactive”.

For the substance PVVHFLWSLYRNLVCVDGKV, the amyloid nucleation score entry is “inactive”.

Consider TSVGYNRIMFQERNIHPELN, for which the amyloid nucleation score entry was “inactive”.

QTMDTYLWLAR returned an amyloid nucleation score of -0.083 ± 1.1.

Regarding ASRTAHVSEVQFGCAPGSER, the amyloid nucleation score entry was “inactive”.

For TSTFARDKVDFAVLSLF, the amyloid nucleation score result is “inactive”.

In the case of VSLPSVIKYNDS, the amyloid nucleation score result was “inactive”.

Regarding PLVDPLGELYAATFCSGEYC, the amyloid nucleation score result was “inactive”.

Consider KRYLGLMQRDVWISDAKLSA, for which the amyloid nucleation score result is “inactive”.

Consider VWGMMFNMCYRELCLAMTLF, for which the amyloid nucleation score result is “inactive”.

For the substance NRAVHKSRWHRMRTFKDERR, the amyloid nucleation score entry was “inactive”.

Regarding KSGRSCYIFVYMWQLTVYSG, the amyloid nucleation score result is “inactive”.

As for SHVWFDRGLIETEMSAHRY, the amyloid nucleation score result is “inactive”.

On to IFMLWPAD, for which the amyloid nucleation score result was “inactive”.

FVQDFSTFTAGWCL: the amyloid nucleation score result is “inactive”.

In the case of ISSVQISRAFPQHRTRRN, the amyloid nucleation score result was “inactive”.

Take MWICVILGSQIWSRWETMNG: the amyloid nucleation score entry is “inactive”.

For the substance CGVSWTVSIITDTFICN, the amyloid nucleation score was determined as 2.76 ± 0.06.

With LDACILRFARCLEGVDYADK, the amyloid nucleation score result was “inactive”.

As for FAYLFPCMLLPRSLFAFRIN, the amyloid nucleation score result is “inactive”.

As for FIVVVLLCFG, the amyloid nucleation score result is “inactive”.

QVFLRMKRRICVPLFYLACN had an amyloid nucleation score of 0.422 ± 0.21.

Take VLMGRCLPRWLLYEELLVYV: the amyloid nucleation score entry was “inactive”.

For the substance IFVCKRLMRGLVR, the amyloid nucleation score result was “inactive”.

Consider PDKWSPGAYVKWWVGTKVQM, for which the amyloid nucleation score result is “inactive”.

Regarding CGSVSSI, the amyloid nucleation score entry is “inactive”.

For the substance STRRILCIP, the amyloid nucleation score was -0.381 ± 0.8.

Turning to CVASR, the amyloid nucleation score entry was “inactive”.

Take IDQRWYCALQCHCREEINCR: the amyloid nucleation score entry was “inactive”.

TFALFLGWIMPTSGGDTGYY: the amyloid nucleation score was 0.037 ± 0.39.

For VLSFRSRTSKNKFRGAQGVT, the amyloid nucleation score entry was “inactive”.

VVTVGVMT: the amyloid nucleation score result is “inactive”.

For the substance NLQNGDYITVWTEWEQEACR, the amyloid nucleation score result is “inactive”.

Consider PWGEILINGR, for which the amyloid nucleation score result was “inactive”.

For NFKAT, the amyloid nucleation score result is “inactive”.

With RSNNGSSERGGDIEDLSPNK, the amyloid nucleation score result is “inactive”.

As to RGSKQLDWHSYYNRVLDIGR, the amyloid nucleation score was -0.296 ± 0.88.

For NKRLAQRQWDTACFQKG, the amyloid nucleation score result was “inactive”.

In turn, AMSTPIGMGEVKFKCFILWL displayed an amyloid nucleation score of 0.56 ± 0.18.

For SSNLNRFSITVFVVERHHQF, the amyloid nucleation score result was “inactive”.

WNVLPATMMRFIRDMTGH: the amyloid nucleation score entry is “inactive”.

As for HMLYLNLFGIIGIIFCDWNM, the amyloid nucleation score entry is “inactive”.

Turning to SWVRTGFL, the amyloid nucleation score result was “inactive”.

In the case of CYRSISRRDPS, the amyloid nucleation score result was “inactive”.

LDKEFAYIYSYC: the amyloid nucleation score result was “inactive”.

On to LMNKKCNPGDKTLQIYIRRG, for which the amyloid nucleation score entry is “inactive”.

Take GTGEGNDLCARQNPLHQRII: the amyloid nucleation score entry was “inactive”.

For DFHYFKRVRNQGWNQKRKRY, the amyloid nucleation score result is “inactive”.

As for TRCTGSYNNYG, the amyloid nucleation score result is “inactive”.

Turning to AFNHCETDRLTCL, the amyloid nucleation score result is “inactive”.

For the substance GKGFCLLVVSSVMRDVGLVQ, the amyloid nucleation score result is “inactive”.

Consider IRGIVV, for which the amyloid nucleation score result was “inactive”.

Regarding RHLPQESKRSSVAAISLM, the amyloid nucleation score entry is “inactive”.

As for YSVAHQIPDDDRQGE, the amyloid nucleation score entry is “inactive”.
